Measured values published in PMC9200798.
Blank lines part the entries; values can stand above or below the substance they belong to.

Assays:
[1] = target: rabbit skeletal muscle α-actin (rabbit (Oryctolagus cuniculus)) (UniProt P68135)
[2] = target: Leishmania major actin (Leishmania major) (UniProt P45520)
[3] = target: Leishmania major actin (Leishmania major) (UniProt P45520); remark: listed apart in the source
[4] = target: Leishmania major actin (Leishmania major) (UniProt P45520); experiment: microfluidics-coupled TIRF microscopy of single filaments; pointed end depolymerization: pre-polymerized ADP-F-actin injected over 10 nM biotin-gelsolin held on neutravidin, F-buffer with 0.4 mM CaCl2, then F-buffer
[5] = target: Leishmania major actin (Leishmania major) (UniProt P45520); experiment: microfluidics-coupled TIRF microscopy of single filaments; barbed end polymerization from surface-anchored spectrin-actin seeds, G-actin with equimolar profilin in F-buffer (5 mM Tris-HCl pH 7.4, 50 mM KCl, 1 mM MgCl2); segmented, mixed or ATP-ATTO-488 filaments
P45520 = experiment: microfluidics-coupled TIRF microscopy of single filaments; barbed end depolymerization of ADP-Pi filaments, F-buffer with KCl replaced by 40 mM K2HPO4 and 10 mM KH2PO4; details: other: microfluidics-coupled TIRF microscopy of single filaments

Substance: Leishmania major twinfilin (natural protein)
depolymerization rate of ADP-RbActin filaments with LmTwf [1]: 0.5 subunits/s
barbed end depolymerization rate of ADP-LmActin filaments without actin monomers, with LmTwf (0.1 and 1 μM) against buffer only [2]: 3 subunits/s
barbed end polymerization rate with 1 μM LmActin, 1 μM LmProfilin and 0–4 μM LmTwf; net depolymerization above 0.2 μM LmTwf [2]: 8 subunits/s

global fragmentation rate of LmActin filaments by LmCofilin against RbActin filaments by mammalian cofilin-1, microfluidics-coupled TIRF microscopy [3]: 100 fold
Substance: Leishmania major cofilin (natural protein)

pointed end depolymerization rate, ADP-actin [4]: 3.5 subunits/s
barbed end polymerization rate constant (with equimolar LmProfilin) (subunits/s/μM) [5]: 6
Substance: Leishmania major actin (from UniProt P45520 2-376) (natural protein)

Substance: Leishmania major actin
barbed end depolymerization rate, ADP-Pi-actin (P45520): ~6 subunits/s
